Results taken from paper PMC4997814.
Blank lines part the entries; values can stand above or below the molecule they belong to.

Experiments:
CYP2C8 Supersomes = CYP2C8 Supersomes (UniProt P10632)
CYP3A4 Supersomes = CYP3A4 Supersomes (UniProt P08684)
Recombinant CYP26B1 = target: T1, Recombinant CYP26B1 (UniProt Q9NR63)
T1 sequence: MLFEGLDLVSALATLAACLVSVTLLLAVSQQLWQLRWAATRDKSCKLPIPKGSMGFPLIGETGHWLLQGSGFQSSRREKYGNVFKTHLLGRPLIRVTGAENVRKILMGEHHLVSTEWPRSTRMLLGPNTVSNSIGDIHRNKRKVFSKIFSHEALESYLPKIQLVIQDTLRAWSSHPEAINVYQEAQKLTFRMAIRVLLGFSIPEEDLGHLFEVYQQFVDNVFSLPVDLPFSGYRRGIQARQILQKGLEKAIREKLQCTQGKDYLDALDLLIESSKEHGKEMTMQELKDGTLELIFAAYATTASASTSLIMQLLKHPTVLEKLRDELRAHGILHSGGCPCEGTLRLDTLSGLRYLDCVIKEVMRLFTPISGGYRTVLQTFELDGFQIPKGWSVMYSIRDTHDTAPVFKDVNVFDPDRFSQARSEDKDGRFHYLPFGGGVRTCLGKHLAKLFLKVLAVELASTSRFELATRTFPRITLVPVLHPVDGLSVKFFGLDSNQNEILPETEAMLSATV

Sequence of UniProt P08684 (P08684 whole entry): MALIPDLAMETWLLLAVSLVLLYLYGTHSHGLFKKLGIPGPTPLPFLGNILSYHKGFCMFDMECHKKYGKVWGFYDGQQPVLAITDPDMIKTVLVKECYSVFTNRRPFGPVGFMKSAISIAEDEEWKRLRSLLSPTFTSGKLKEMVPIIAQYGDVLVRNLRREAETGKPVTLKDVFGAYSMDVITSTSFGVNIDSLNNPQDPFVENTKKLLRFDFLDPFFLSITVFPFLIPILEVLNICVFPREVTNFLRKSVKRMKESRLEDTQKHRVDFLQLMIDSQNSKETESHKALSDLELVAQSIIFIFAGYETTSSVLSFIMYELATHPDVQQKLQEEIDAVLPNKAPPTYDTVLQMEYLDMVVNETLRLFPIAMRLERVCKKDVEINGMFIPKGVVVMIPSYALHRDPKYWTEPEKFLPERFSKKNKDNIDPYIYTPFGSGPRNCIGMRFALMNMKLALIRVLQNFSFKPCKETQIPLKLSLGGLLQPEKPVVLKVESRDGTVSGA
Sequence of UniProt P10632 (P10632 whole entry): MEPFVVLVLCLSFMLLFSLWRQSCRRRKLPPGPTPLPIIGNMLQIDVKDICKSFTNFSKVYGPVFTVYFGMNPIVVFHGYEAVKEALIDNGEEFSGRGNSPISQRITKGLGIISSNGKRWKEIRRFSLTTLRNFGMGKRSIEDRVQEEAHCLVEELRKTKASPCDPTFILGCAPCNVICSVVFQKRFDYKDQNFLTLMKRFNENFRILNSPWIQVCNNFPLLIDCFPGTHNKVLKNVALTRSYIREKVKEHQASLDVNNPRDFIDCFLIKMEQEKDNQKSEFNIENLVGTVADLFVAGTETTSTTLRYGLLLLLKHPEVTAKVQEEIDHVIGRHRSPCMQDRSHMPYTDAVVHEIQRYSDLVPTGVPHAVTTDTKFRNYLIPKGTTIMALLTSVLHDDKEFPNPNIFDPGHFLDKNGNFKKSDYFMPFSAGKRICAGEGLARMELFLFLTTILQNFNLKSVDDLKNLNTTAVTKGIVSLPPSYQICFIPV

decrease of 4-OH-RA formation by CYP2C8 with 1 uM holo-CRABP-I against free atRA (CYP2C8 Supersomes): 98%
decrease of 4-OH-RA formation by CYP3A4 with 1 uM holo-CRABP-I against free atRA (CYP3A4 Supersomes): 98%
apparent Km of 4-OH-RA formation by CYP26B1 with holo-CRABP-I as substrate (Recombinant CYP26B1): 0.0217 µM
Molecule: Cellular retinoic acid binding protein I (CRABP-I) (from UniProt P29762 1-137) (natural protein)

apparent Km of 4-OH-RA formation by CYP26B1 with holo-CRABP-II as substrate (Recombinant CYP26B1): 0.0243 µM
B1: Cellular retinoic acid binding protein II (CRABP-II) (natural protein)
chain: MPNFSGNWKIIRSENFEELLKVLGVNVMLRKIAVAAASKPAVEIKQEGDTFYIKTSTTVRTTEINFKVGEEFEEQTVDGRPCKSLVKWESENKMVCEQKLLKGEGPKTSWTRELTNDGELILTMTADDVVCTRVYVRE
